Experimental data taken from publication PMC7367873, “Dissecting the sequence determinants for dephosphorylation by the catalytic subunits of phosphatases PP1 and PP2A” (Nature Communications, 2020).
Values belong to the molecule of their own block, whether it stands above or below them.

Columns and labels:
[1] = system: GFP-14-3-3β and its binding proteins; assay: GFP-14-3-3β co-IP with LC-MS/MS label-free quantification, untreated versus PP1c-treated; parameters: species or system human; conditions: PP1 vs untreated; label-free quantification
GFP-14-3-3β = GFP-14-3-3β co-IP with LC-MS/MS, untreated GFP-14-3-3β versus GFP control (14-3-3 interactome); type: binding, human; conditions: untreated vs GFP; label-free quantification

- Difference (log2), PP1 vs untreated [1]: 0.7666 log2
B2: FLOT2 (protein, UniProt Q14254 2-428, looked up)
Flotillin-2: GNCHTVGPNEALVVSGGCCGSDYKQYVFGGWAWAWWCISDTQRISLEIMTLQPRCEDVETAEGVALTVTGVAQVKIMTEKELLAVACEQFLGKNVQDIKNVVLQTLEGHLRSILGTLTVEQIYQDRDQFAKLVREVAAPDVGRMGIEILSFTIKDVYDKVDYLSSLGKTQTAVVQRDADIGVAEAERDAGIREAECKKEMLDVKFMADTKIADSKRAFELQKSAFSEEVNIKTAEAQLAYELQGAREQQKIRQEEIEIEVVQRKKQIAVEAQEILRTDKELIATVRRPAEAEAHRIQQIAEGEKVKQVLLAQAEAEKIRKIGEAEAAVIEAMGKAEAERMKLKAEAYQKYGDAAKMALVLEALPQIAAKIAAPLTKVDEIVVLSGDNSKVTSEVNRLLAELPASVHALTGVDLSKIPLIKKATGVQV
- Difference (log2), untreated vs GFP (GFP-14-3-3β): -0.7491 log2

- Difference (log2), PP1 vs untreated [1]: 0.7682 log2
B3: NUFIP2 (protein, UniProt Q7Z417 1-695, looked up)
FMR1-interacting protein …: MEEKPGQPQPQHHHSHHHPHHHPQQQQQQPHHHHHYYFYNHSHNHHHHHHHQQPHQYLQHGAEGSPKAQPKPLKHEQKHTLQQHQETPKKKTGYGELNGNAGEREISLKNLSSDEATNPISRVLNGNQQVVDTSLKQTVKANTFGKAGIKTKNFIQKNSMDKKNGKSYENKSGENQSVDKSDTIPIPNGVVTNNSGYITNGYMGKGADNDGSGSESGYTTPKKRKARRNSAKGCENLNIVQDKIMQQETSVPTLKQGLETFKPDYSEQKGNRVDGSKPIWKYETGPGGTSRGKPAVGDMLRKSSDSKPGVSSKKFDDRPKGKHASAVASKEDSWTLFKPPPVFPVDNSSAKIVPKISYASKVKENLNKTIQNSSVSPTSSSSSSSSTGETQTQSSSRLSQVPMSALKSVTSANFSNGPVLAGTDGNVYPPGGQPLLTTAANTLTPISSGTDSVLQDMSLTSAAVEQIKTSLFIYPSNMQTMLLSTAQVDLPSQTDQQNLGDIFQNQWGLSFINEPSAGPETVTGKSSEHKVMEVTFQGEYPATLVSQGAEIIPSGTEHPVFPKAYELEKRTSPQVLGSILKSGTTSESGALSLEPSHIGDLQKADTSSQGALVFLSKDYEIESQNPLASPTNTLLGSAKEQRYQRGLERNDSWGSFDLRAAIVYHTKEMESIWNLQKQDPKRIITYNEAMDSPDQ
- Difference (log2), untreated vs GFP (GFP-14-3-3β): 0.8112 log2

- Difference (log2), PP1 vs untreated [1]: 0.7397 log2
B4: MISP (protein, UniProt Q8IVT2 1-679, looked up)
Mitotic interactor and …: MDRVTRYPILGIPQAHRGTGLVLDGDTSYTYHLVCMGPEASGWGQDEPQTWPTDHRAQQGVQRQGVSYSVHAYTGQPSPRGLHSENREDEGWQVYRLGARDAHQGRPTWALRPEDGEDKEMKTYRLDAGDADPRRLCDLERERWAVIQGQAVRKSSTVATLQGTPDHGDPRTPGPPRSTPLEENVVDREQIDFLAARQQFLSLEQANKGAPHSSPARGTPAGTTPGASQAPKAFNKPHLANGHVVPIKPQVKGVVREENKVRAVPTWASVQVVDDPGSLASVESPGTPKETPIEREIRLAQEREADLREQRGLRQATDHQELVEIPTRPLLTKLSLITAPRRERGRPSLYVQRDIVQETQREEDHRREGLHVGRASTPDWVSEGPQPGLRRALSSDSILSPAPDARAADPAPEVRKVNRIPPDAYQPYLSPGTPQLEFSAFGAFGKPSSLSTAEAKAATSPKATMSPRHLSESSGKPLSTKQEASKPPRGCPQANRGVVRWEYFRLRPLRFRAPDEPQQAQVPHVWGWEVAGAPALRLQKSQSSDLLERERESVLRREQEVAEERRNALFPEVFSPTPDENSDQNSRSSSQASGITGSYSVSESPFFSPIHLHSNVAWTVEDPVDSAPPGQRKKEQWYAGINPSDGINSEVLEAIRVTRHKNAMAERWESRIYASEEDD
- Difference (log2), untreated vs GFP (GFP-14-3-3β): -0.2245 log2

- Difference (log2), PP1 vs untreated [1]: 0.766 log2
B6: HNRNPF (protein, UniProt P52597 1-415, looked up)
Heterogeneous nuclear …: MMLGPEGGEGFVVKLRGLPWSCSVEDVQNFLSDCTIHDGAAGVHFIYTREGRQSGEAFVELGSEDDVKMALKKDRESMGHRYIEVFKSHRTEMDWVLKHSGPNSADSANDGFVRLRGLPFGCTKEEIVQFFSGLEIVPNGITLPVDPEGKITGEAFVQFASQELAEKALGKHKERIGHRYIEVFKSSQEEVRSYSDPPLKFMSVQRPGPYDRPGTARRYIGIVKQAGLERMRPGAYSTGYGGYEEYSGLSDGYGFTTDLFGRDLSYCLSGMYDHRYGDSEFTVQSTTGHCVHMRGLPYKATENDIYNFFSPLNPVRVHIEIGPDGRVTGEADVEFATHEEAVAAMSKDRANMQHRYIELFLNSTTGASNGAYSSQVMQGMGVSAAQATYSGLESQSVSGCYGAGYSGQNSMGGYD
- Difference (log2), untreated vs GFP (GFP-14-3-3β): -0.6522 log2

The next lines start with the molecule.

B1: ASPH (protein, UniProt Q12797 1-758, looked up)
Aspartyl/asparaginyl …: MAQRKNAKSSGNSSSSGSGSGSTSAGSSSPGARRETKHGGHKNGRKGGLSGTSFFTWFMVIALLGVWTSVAVVWFDLVDYEEVLGKLGIYDADGDGDFDVDDAKVLLGLKERSTSEPAVPPEEAEPHTEPEEQVPVEAEPQNIEDEAKEQIQSLLHEMVHAEHVEGEDLQQEDGPTGEPQQEDDEFLMATDVDDRFETLEPEVSHEETEHSYHVEETVSQDCNQDMEEMMSEQENPDSSEPVVEDERLHHDTDDVTYQVYEEQAVYEPLENEGIEITEVTAPPEDNPVEDSQVIVEEVSIFPVEEQQEVPPETNRKTDDPEQKAKVKKKKPKLLNKFDKTIKAELDAAEKLRKRGKIEEAVNAFKELVRKYPQSPRARYGKAQCEDDLAEKRRSNEVLRGAIETYQEVASLPDVPADLLKLSLKRRSDRQQFLGHMRGSLLTLQRLVQLFPNDTSLKNDLGVGYLLIGDNDNAKKVYEEVLSVTPNDGFAKVHYGFILKAQNKIAESIPYLKEGIESGDPGTDDGRFYFHLGDAMQRVGNKEAYKWYELGHKRGHFASVWQRSLYNVNGLKAQPWWTPKETGYTELVKSLERNWKLIRDEGLAVMDKAKGLFLPEDENLREKGDWSQFTLWQQGRRNENACKGAPKTCTLLEKFPETTGCRRGQIKYSIMHPGTHVWPHTGPTNCRLRMHLGLVIPKEGCKIRCANETKTWEEGKVLIFDDSFEHEVWQDASSFRLIFIVDVWHPELTPQQRRSLPAI
- Difference (log2), PP1 vs untreated [1]: 0.7413 log2
- Difference (log2), untreated vs GFP (GFP-14-3-3β): 0.9544 log2

B5: C4BPA (protein, UniProt P04003 49-597, looked up)
C4b-binding protein alpha …: NCGPPPTLSFAAPMDITLTETRFKTGTTLKYTCLPGYVRSHSTQTLTCNSDGEWVYNTFCIYKRCRHPGELRNGQVEIKTDLSFGSQIEFSCSEGFFLIGSTTSRCEVQDRGVGWSHPLPQCEIVKCKPPPDIRNGRHSGEENFYAYGFSVTYSCDPRFSLLGHASISCTVENETIGVWRPSPPTCEKITCRKPDVSHGEMVSGFGPIYNYKDTIVFKCQKGFVLRGSSVIHCDADSKWNPSPPACEPNSCINLPDIPHASWETYPRPTKEDVYVVGTVLRYRCHPGYKPTTDEPTTVICQKNLRWTPYQGCEALCCPEPKLNNGEITQHRKSRPANHCVYFYGDEISFSCHETSRFSAICQGDGTWSPRTPSCGDICNFPPKIAHGHYKQSSSYSFFKEEIIYECDKGYILVGQAKLSCSYSHWSAPAPQCKALCRKPELVNGRLSVDKDQYVEPENVTIQCDSGYGVVGPQSITCSGNRTWYPEVPKCEWETPEGCEQVLTGKRLMQCLPNPEDVKMALEVYKLSLEIEQLELQRDSARQSTLDKEL
- Difference (log2), PP1 vs untreated [1]: 0.7487 log2
- Difference (log2), untreated vs GFP (GFP-14-3-3β): -1.682 log2

B7: ATXN2L (protein, UniProt Q8WWM7 1-1075, looked up)
Ataxin-2-like protein: MLKPQPLQQPSQPQQPPPTQQAVARRPPGGTSPPNGGLPGPLATSAAPPGPPAAASPCLGPVAAAGSGLRRGAEGILAPQPPPPQQHQERPGAAAIGSARGQSTGKGPPQSPVFEGVYNNSRMLHFLTAVVGSTCDVKVKNGTTYEGIFKTLSSKFELAVDAVHRKASEPAGGPRREDIVDTMVFKPSDVMLVHFRNVDFNYATKDKFTDSAIAMNSKVNGEHKEKVLQRWEGGDSNSDDYDLESDMSNGWDPNEMFKFNEENYGVKTTYDSSLSSYTVPLEKDNSEEFRQRELRAAQLAREIESSPQYRLRIAMENDDGRTEEEKHSAVQRQGSGRESPSLASREGKYIPLPQRVREGPRGGVRCSSSRGGRPGLSSLPPRGPHHLDNSSPGPGSEARGINGGPSRMSPKAQRPLRGAKTLSSPSNRPSGETSVPPPPAVGRMYPPRSPKSAAPAPISASCPEPPIGSAVPTSSASIPVTSSVSDPGVGSISPASPKISLAPTDVKELSTKEPGRTLEPQELARIAGKVPGLQNEQKRFQLEELRKFGAQFKLQPSSSPENSLDPFPPRILKEEPKGKEKEVDGLLTSEPMGSPVSSKTESVSDKEDKPPLAPSGGTEGPEQPPPPCPSQTGSPPVGLIKGEDKDEGPVAEQVKKSTLNPNAKEFNPTKPLLSVNKSTSTPTSPGPRTHSTPSIPVLTAGQSGLYSPQYISYIPQIHMGPAVQAPQMYPYPVSNSVPGQQGKYRGAKGSLPPQRSDQHQPASAPPMMQAAAAAGPPLVAATPYSSYIPYNPQQFPGQPAMMQPMAHYPSQPVFAPMLQSNPRMLTSGSHPQAIVSSSTPQYPSAEQPTPQALYATVHQSYPHHATQLHAHQPQPATTPTGSQPQSQHAAPSPVQHQAGQAPHLGSGQPQQNLYHPGALTGTPPSLPPGPSAQSPQSSFPQPAAVYAIHHQQLPHGFTNMAHVTQAHVQTGITAAPPPHPGAPHPPQVMLLHPPQSHGGPPQGAVPQSGVPALSASTPSPYPYIGHPQGEQPGQAPGFPGGADDRIREFSLAGGIWHGRAEGLQVGQDARVLGGE
- Difference (log2), PP1 vs untreated [1]: 0.7492 log2
- Difference (log2), untreated vs GFP (GFP-14-3-3β): 0.1548 log2

B8: ARHGEF2 (protein, UniProt Q92974 1-986, looked up)
Rho guanine nucleotide …: MSRIESLTRARIDRSRELASKTREKEKMKEAKDARYTNGHLFTTISVSGMTMCYACNKSITAKEALICPTCNVTIHNRCKDTLANCTKVKQKQQKAALLKNNTALQSVSLRSKTTIRERPSSAIYPSDSFRQSLLGSRRGRSSLSLAKSVSTTNIAGHFNDESPLGLRRILSQSTDSLNMRNRTLSVESLIDEAEVIYSELMSDFEMDEKDFAADSWSLAVDSSFLQQHKKEVMKQQDVIYELIQTELHHVRTLKIMTRLFRTGMLEELHLEPGVVQGLFPCVDELSDIHTRFLSQLLERRRQALCPGSTRNFVIHRLGDLLISQFSGPSAEQMCKTYSEFCSRHSKALKLYKELYARDKRFQQFIRKVTRPAVLKRHGVQECILLVTQRITKYPLLISRILQHSHGIEEERQDLTTALGLVKELLSNVDEGIYQLEKGARLQEIYNRMDPRAQTPVPGKGPFGREELLRRKLIHDGCLLWKTATGRFKDVLVLLMTDVLVFLQEKDQKYIFPTLDKPSVVSLQNLIVRDIANQEKGMFLISAAPPEMYEVHTASRDDRSTWIRVIQQSVRTCPSREDFPLIETEDEAYLRRIKMELQQKDRALVELLREKVGLFAEMTHFQAEEDGGSGMALPTLPRGLFRSESLESPRGERLLQDAIREVEGLKDLLVGPGVELLLTPREPALPLEPDSGGNTSPGVTANGEARTFNGSIELCRADSDSSQRDRNGNQLRSPQEEALQRLVNLYGLLHGLQAAVAQQDTLMEARFPEGPERREKLCRANSRDGEAGRAGAAPVAPEKQATELALLQRQHALLQEELRRCRRLGEERATEAGSLEARLRESEQARALLEREAEEARRQLAALGQTEPLPAEAPWARRPVDPRRRSLPAGDALYLSFNPPQPSRGTDRLDLPVTTRSVHRNFEDRERQELGSPEERLQDSSDPDTGSEEEGSSRLSPPHSPRDFTRMQDIPEETESRDGEAVASES
- Difference (log2), PP1 vs untreated [1]: 0.772 log2
- Difference (log2), untreated vs GFP (GFP-14-3-3β): 1.2 log2
